Results reported in the supplement of paper PMC5998384.

Assays:
HeLa Kyoto [1] = test: thermal stability score vs G1/S (z-score of summed log2 fold changes over temperatures); higher = more thermally stable than in G1/S
HeLa Kyoto [2] = test: solubility change mitosis vs G1/S (difference of NP-40 vs SDS log2 ratios) (log2 ratio difference); higher = more soluble in mitosis
HeLa Kyoto [3] = test: melting temperature (median over replicates), in situ; higher = more thermally stable
HeLa Kyoto [4] = test: solubility in G1/S (NP-40 vs SDS abundance) (log2 ratio); higher = more soluble; settings: cell cycle stage: G1/S
[5] = cell cycle stage: early G1 (4.5 h after nocodazole release)
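For melting temperature (median over replicates), in situ in this document: HeLa Kyoto cells synchronized by double thymidine or nocodazole block, proteins quantified by TMT10plex mass spectrometry, three independent biological replicates.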
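For solubility change mitosis vs G1/S (difference of NP-40 vs SDS log2 ratios) in this document: synchronized HeLa Kyoto cells (double thymidine block for G1/S, nocodazole release for mitosis), protein amounts in NP-40 versus SDS lysates quantified by mass spectrometry, three biological replicates.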
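For solubility in G1/S (NP-40 vs SDS abundance) in this document: HeLa Kyoto cells arrested at G1/S by double thymidine block, proteins quantified by TMT10plex mass spectrometry in mild NP-40 versus SDS extracts, three biological replicates.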
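For thermal stability score vs G1/S (z-score of summed log2 fold changes over temperatures) in this document: synchronized HeLa Kyoto cells, proteins quantified by TMT10plex mass spectrometry, three biological replicates, mitosis taken 0.5 h after nocodazole release, G1/S directly after double thymidine block.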

HDGF, sequence (chain, as listed by the source): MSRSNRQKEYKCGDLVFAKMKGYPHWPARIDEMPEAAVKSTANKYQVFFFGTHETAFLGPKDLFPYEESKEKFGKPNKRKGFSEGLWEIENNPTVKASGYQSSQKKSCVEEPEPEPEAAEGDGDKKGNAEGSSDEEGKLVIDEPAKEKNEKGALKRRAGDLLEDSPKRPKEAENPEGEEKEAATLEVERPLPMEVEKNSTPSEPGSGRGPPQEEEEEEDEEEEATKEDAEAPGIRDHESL

Substance	thermal stability score (HeLa Kyoto [1]; [5])	thermal stability score (HeLa Kyoto [1]; cell cycle stage: mitosis)	solubility change mitosis (log2) (HeLa Kyoto [2])	melting temperature (HeLa Kyoto [3]; cell cycle stage: G1/S)	melting temperature (HeLa Kyoto [3]; cell cycle stage: mitosis)	solubility in G1/S (log2) (HeLa Kyoto [4])
MAVPAAAMGPSALGQSGPGSMAPWCSVSSGPSRYVLGMQELFRGHSKTREFLAHSAKVHSVAWSCDGRRLASGSFDKTASVFLLEKDRLVKENNYRGHGDSVDQLCWHPSNPDLFVTASGDKTIRIWDVRTTKCIATVNTKGENINICWSPDGQTIAVGNKDDVVTFIDAKTHRSKAEEQFKFEVNEISWNNDNNMFFLTNGNGCINILSYPELKPVQSINAHPSNCICIKFDPMGKYFATGSADALVSLWDVDELVCVRCFSRLDWPVRTLSFSHDGKMLASASEDHFIDIAEVETGDKLWEVQCESPTFTVAWHPKRPLLAFACDDKDGKYDSSREAGTVKLFGLPNDS [THOC3]	-1.08	1.13	0.047	50.6 °C	51.9 °C	-0.421
MAECGRGGAAGGALPTSPGPALGAKGALKAGVGEGGGGGGRLGHGRARYDSGGVSNGDCSLGVSGDEARASPTRGPRGVALAPTPSAVVCTLPRESKPGGLPRRSSIIKDGTKQKRERKKTVSFSSMPTEKKISSASDCINSMVEGSELKKVRSNSRIYHRYFLLDADMQSLRWEPSKKDSEKAKIDIKSIKEVRTGKNTDIFRSNGISDQISEDCAFSVIYGENYESLDLVANSADVANIWVTGLRYLISYGKHTLDMLESSQDNMRTSWVSQMFSEIDVDNLGHITLCNAVQCIRNLNPGLKTSKIELKFKELHKSKDKAGTEVTKEEFIEVFHELCTRPEIYFLLVQFSSNKEFLDTKDLMMFLEAEQGVAHINEEISLEIIHKYEPSKEGQEKGWLSIDGFTNYLMSPDCYIFDPEHKKVCQDMKQPLSHYFINSSHNTYLIEDQFRGPSDITGYIRALKMGCRSVELDVWDGPDNEPVIYTGHTMTSQIVFRSVIDIINKYAFFASEYPLILCLENHCSIKQQKVMVQHMKKLLGDKLYTTSPNVEESYLPSPDVLKGKILIKAKKLSSNCSGVEGDVTDEDEGAEMSQRMGKENMEQPNNVPVKRFQLCKELSELVSICKSVQFKEFQVSFQVQKYWEVCSFNEVLASKYANENPGDFVNYNKRFLARVFPSPMRIDSSNMNPQDFWKCGCQIVAMNFQTPGLMMDLNIGWFRQNGNCGYVLRPAIMREEVSFFSANTKDSVPGVSPQLLHIKIISGQNFPKPKGSGAKGDVVDPYVYVEIHGIPADCAEQRTKTVHQNGDAPIFDESFEFQINLPELAMVRFVVLDDDYIGDEFIGQYTIPFECLQTGYRHVPLQSLTGEVLAHASLFVHVAITNRRGGGKPHKRGLSVRKGKKSREYASLRTLWIKTVDEVFKNAQPPIRDATDLRENMQNAVVSFKELCGLSSVANLMQCMLAVSPRFLGPDNTPLVVLNLSEQYPTMELQGIVPEVLKKIVTTYDMMIQSLKALIENADAVYEKIVHCQKAAMEFHEHLHSIGTKEGLKERKLQKAVESFTWNITILKGQADLLKYAKNETLENLKQIHFAAVSCGLNKPGTENADVQKPRRSLEVIPEKANDETGE [PLCL2]	-0.0105	-0.32	-0.105	50.4 °C	50.2 °C	-0.0622
MNGRADFREPNAEVPRPIPHIGPDYIPTEEERRVFAECNDESFWFRSVPLAATSMLITQGLISKGILSSHPKYGSIPKLILACIMGYFAGKLSYVKTCQEKFKKLENSPLGEALRSGQARRSSPPGHYYQKSKYDSSVSGQSSFVTSPAADNIEMLPHYEPIPFSSSMNESAPTGITDHIVQGPDPNLEESPKRKNITYEELRNKNRESYEVSLTQKTDPSVRPMHERVPKKEVKVNKYGDTWDE [OCIAD1]	-1.09	-4.47	0.225	55.9 °C	53.1 °C	0.219
MAGVRSLRCSRGCAGGCECGDKGKCSDSSLLGKRLSEDSSRHQLLQKWASMWSSMSEDASVADMERAQLEEEAAAAEERPLVFLCSGCRRPLGDSLSWVASQEDTNCILLRCVSCNVSVDKEQKLSKREKENGCVLETLCCAGCSLNLGYVYRCTPKNLDYKRDLFCLSVEAIESYVLGSSEKQIVSEDKELFNLESRVEIEKSLTQMEDVLKALQMKLWEAESKLSFATCKS [MIS18A]	-2.17	-2.88	0.371	51.3 °C	51.9 °C	-0.162
MACGFRRAIACQLSRVLNLPPENLITSISAVPISQKEEVADFQLSVDSLLEKDNDHSRPDIQVQAKRLAEKLRCDTVVSEISTGQRTVNFKINRELLTKTVLQQVIEDGSKYGLKSELFSGLPQKKIVVEFSSPNVAKKFHVGHLRSTIIGNFIANLKEALGHQVIRINYLGDWGMQFGLLGTGFQLFGYEEKLQSNPLQHLFEVYVQVNKEAADDKSVAKAAQEFFQRLELGDVQALSLWQKFRDLSIEEYIRVYKRLGVYFDEYSGESFYREKSQEVLKLLESKGLLLKTIKGTAVVDLSGNGDPSSICTVMRSDGTSLYATRDLAAAIDRMDKYNFDTMIYVTDKGQKKHFQQVFQMLKIMGYDWAERCQHVPFGVVQGMKTRRGDVTFLEDVLNEIQLRMLQNMASIKTTKELKNPQETAERVGLAALIIQDFKGLLLSDYKFSWDRVFQSRGDTGVFLQYTHARLHSLEETFGCGYLNDFNTACLQEPQSVSILQHLLRFDEVLYKSSQDFQPRHIVSYLLTLSHLAAVAHKTLQIKDSPPEVAGARLHLFKAVRSVLANGMKLLGITPVCRM [RARS2]	-0.261	-0.261	-0.141	51.7 °C	50.8 °C	-0.144
MRSLLLLSAFCLLEAALAAEVKKPAAAAAPGTAEKLSPKAATLAERSAGLAFSLYQAMAKDQAVENILVSPVVVASSLGLVSLGGKATTASQAKAVLSAEQLRDEEVHAGLGELLRSLSNSTARNVTWKLGSRLYGPSSVSFADDFVRSSKQHYNCEHSKINFRDKRSALQSINEWAAQTTDGKLPEVTKDVERTDGALLVNAMFFKPHWDEKFHHKMVDNRGFMVTRSYTVGVMMMHRTGLYNYYDDEKEKLQIVEMPLAHKLSSLIILMPHHVEPLERLEKLLTKEQLKIWMGKMQKKAVAISLPKGVVEVTHDLQKHLAGLGLTEAIDKNKADLSRMSGKKDLYLASVFHATAFELDTDGNPFDQDIYGREELRSPKLFYADHPFIFLVRDTQSGSLLFIGRLVRPKGDKMRDEL [SERPINH1]	4.47	4.77	-0.0819	54.2 °C	55.2 °C	0.232
MIPRKRYGSKNTDQGVYLGLSKTQVLSPATAGSSSSDIAPLPPPVTLVPPPPDTMSCRDRTQEFLSACKSLQTRQNGIQTNKPALRAVRQRSEFTLMAKRIGKDLSNTFAKLEKLTILAKRKSLFDDKAVEIEELTYIIKQDINSLNKQIAQLQDFVRAKGSQSGRHLQTHSNTIVVSLQSKLASMSNDFKSVLEVRTENLKQQRSRREQFSRAPVSALPLAPNHLGGGAVVLGAESHASKDVAIDMMDSRTSQQLQLIDEQDSYIQSRADTMQNIESTIVELGSIFQQLAHMVKEQEETIQRIDENVLGAQLDVEAAHSEILKYFQSVTSNRWLMVKIFLILIVFFIIFVVFLA [STX5]	0.862	1.55	-0.103	50 °C	49.9 °C	0.558
MAKMEVKTSLLDNMIGVGDMVLLEPLNEETFINNLKKRFDHSEIYTYIGSVVISVNPYRSLPIYSPEKVEEYRNRNFYELSPHIFALSDEAYRSLRDQDKDQCILITGESGAGKTEASKLVMSYVAAVCGKGAEVNQVKEQLLQSNPVLEAFGNAKTVRNDNSSRFGKYMDIEFDFKGDPLGGVISNYLLEKSRVVKQPRGERNFHVFYQLLSGASEELLNKLKLERDFSRYNYLSLDSAKVNGVDDAANFRTVRNAMQIVGFMDHEAESVLAVVAAVLKLGNIEFKPESRVNGLDESKIKDKNELKEICELTGIDQSVLERAFSFRTVEAKQEKVSTTLNVAQAYYARDALAKNLYSRLFSWLVNRINESIKAQTKVRKKVMGVLDIYGFEIFEDNSFEQFIINYCNEKLQQIFIELTLKEEQEEYIREDIEWTHIDYFNNAIICDLIENNTNGILAMLDEECLRPGTVTDETFLEKLNQVCATHQHFESRMSKCSRFLNDTSLPHSCFRIQHYAGKVLYQVEGFVDKNNDLLYRDLSQAMWKASHALIKSLFPEGNPAKINLKRPPTAGSQFKASVATLMKNLQTKNPNYIRCIKPNDKKAAHIFNEALVCHQIRYLGLLENVRVRRAGYAFRQAYEPCLERYKMLCKQTWPHWKGPARSGVEVLFNELEIPVEEYSFGRSKIFIRNPRTLFKLEDLRKQRLEDLATLIQKIYRGWKCRTHFLLMKKSQIVIAAWYRRYAQQKRYQQTKSSALVIQSYIRGWKARKILRELKHQKRCKEAVTTIAAYWHGTQARRELRRLKEEARNKHAIAVIWAYWLGSKARRELKRLKEEARRKHAVAVIWAYWLGLKVRREYRKFFRANAGKKIYEFTLQRIVQKYFLEMKNKMPSLSPIDKNWPSRPYLFLDSTHKELKRIFHLWRCKKYRDQFTDQQKLIYEEKLEASELFKDKKALYPSSVGQPFQGAYLEINKNPKYKKLKDAIEEKIIIAEVVNKINRANGKSTSRIFLLTNNNLLLADQKSGQIKSEVPLVDVTKVSMSSQNDGFFAVHLKEGSEAASKGDFLFSSDHLIEMATKLYRTTLSQTKQKLNIEISDEFLVQFRQDKVCVKFIQGNQKNGSVPTCKRKNNRLLEVAVP [MYO1B]	-0.836	-0.507	-0.0354	50.5 °C	50.1 °C	-0.528
MASGVQVADEVCRIFYDMKVRKCSTPEEIKKRKKAVIFCLSADKKCIIVEEGKEILVGDVGVTITDPFKHFVGMLPEKDCRYALYDASFETKESRKEELMFFLWAPELAPLKSKMIYASSKDAIKKKFQGIKHECQANGPEDLNRACIAEKLGGSLIVAFEGCPV [DSTN]	-0.977	-2.53	-0.06	54.1 °C	53.3 °C	0.0748
PLEC	-8.96	-8.24	0.643	53.2 °C	52.7 °C	-2.57
MALKQISSNKCFGGLQKVFEHDSVELNCKMKFAVYLPPKAETGKCPALYWLSGLTCTEQNFISKSGYHQSASEHGLVVIAPDTSPRGCNIKGEDESWDFGTGAGFYVDATEDPWKTNYRMYSYVTEELPQLINANFPVDPQRMSIFGHSMGGHGALICALKNPGKYKSVSAFAPICNPVLCPWGKKAFSGYLGTDQSKWKAYDATHLVKSYPGSQLDILIDQGKDDQFLLDGQLLPDNFIAACTEKKIPVVFRLQEGYDHSYYFIATFITDHIRHHAKYLNA [ESD]	-1.51	-2.28	-0.0867	55.8 °C	56.4 °C	-0.0889
RAPGEF2	-0.581	-1.21	-0.144	50.8 °C		-0.143
HDGF	-2.27	-3.47	0.219	53.5 °C	53.2 °C	0.426
MHFSIPETESRSGDSGGSAYVAYNIHVNGVLHCRVRYSQLLGLHEQLRKEYGANVLPAFPPKKLFSLTPAEVEQRREQLEKYMQAVRQDPLLGSSETFNSFLRRAQQETQQVPTEEVSLEVLLSNGQKVLVNVLTSDQTEDVLEAVAAKLDLPDDLIGYFSLFLVREKEDGAFSFVRKLQEFELPYVSVTSLRSQEYKIVLRKSYWDSAYDDDVMENRVGLNLLYAQTVSDIERGWILVTKEQHRQLKSLQEKVSKKEFLRLAQTLRHYGYLRFDACVADFPEKDCPVVVSAGNSELSLQLRLPGQQLREGSFRVTRMRCWRVTSSVPLPSGSTSSPGRGRGEVRLELAFEYLMSKDRLQWVTITSPQAIMMSICLQSMVDELMVKKSGGSIRKMLRRRVGGTLRRSDSQQAVKSPPLLESPDATRESMVKLSSKLSAVSLRGIGSPSTDASASDVHGNFAFEGIGDEDL [SNX17]	1.32	0.59	-0.263	50.9 °C	51.4 °C	0.103
